Like-named read-outs stand apart in the source and are kept apart here.
How the values were obtained:
[1] = target: T1, 10E8-GT12 epitope scaffold (synthetic construct (HIV-1 MPER graft …, N-linked glycosylation sites added (positions not given)))
T1 chain: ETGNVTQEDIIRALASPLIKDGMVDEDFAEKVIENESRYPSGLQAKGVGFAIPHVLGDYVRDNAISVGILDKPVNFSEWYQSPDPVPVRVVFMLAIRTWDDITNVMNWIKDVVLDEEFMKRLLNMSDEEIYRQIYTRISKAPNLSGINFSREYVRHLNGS

[2] = target: T2, 10E8-GT10.2 epitope scaffold (designed scaffold 10E8-GT10.2 with …, N-linked glycosylation sites added (positions not given))
T2 chain: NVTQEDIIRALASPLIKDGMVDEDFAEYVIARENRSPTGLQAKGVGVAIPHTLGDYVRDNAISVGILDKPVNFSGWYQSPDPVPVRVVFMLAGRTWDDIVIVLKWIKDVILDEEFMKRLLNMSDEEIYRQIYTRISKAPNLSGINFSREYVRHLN

10E8-B1 epitope scaffold [3] = target: T3, 10E8-B1 epitope scaffold (synthetic construct (resurfaced …))
T3 chain: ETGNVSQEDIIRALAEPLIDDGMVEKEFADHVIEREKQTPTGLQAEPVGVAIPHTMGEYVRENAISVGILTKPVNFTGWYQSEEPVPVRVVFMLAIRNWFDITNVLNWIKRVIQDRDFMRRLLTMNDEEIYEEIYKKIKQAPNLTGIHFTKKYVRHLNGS

T117v2 epitope scaffold = target: T4, T117v2 epitope scaffold (designed scaffold T117v2 with HIV-1 …); assay: SPR; values told in the text, methods or extended data without a main figure; instrument not told (Carterra LSA, ProteOn XPR36 with GLC chip or Biacore 4000 with CM5 chip); settings: both partners purified
T4 chain: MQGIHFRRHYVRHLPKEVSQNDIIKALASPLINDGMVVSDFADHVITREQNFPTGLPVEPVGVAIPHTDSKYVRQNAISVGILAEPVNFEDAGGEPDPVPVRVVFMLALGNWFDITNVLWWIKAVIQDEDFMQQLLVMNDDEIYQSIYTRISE

10E8-B1 epitope scaffold [4] = target: T3, 10E8-B1 epitope scaffold; assay: SPR; Carterra LSA, HC30M or CMDP chips; antibodies as ligands held by an amine-coupled capture antibody, scaffolds as analytes (monovalent Kd); 1x HBS-EP+ pH 7.4 with 1 mg/ml bovine serum albumin; Langmuir model; values of the main text figures; settings: both partners purified
[5] = target: T5, 10E8-GT10.1 epitope scaffold (synthetic construct, circularly …, N-linked glycosylation sites added (positions not given)); assay: as above; settings: both partners purified
T5 chain: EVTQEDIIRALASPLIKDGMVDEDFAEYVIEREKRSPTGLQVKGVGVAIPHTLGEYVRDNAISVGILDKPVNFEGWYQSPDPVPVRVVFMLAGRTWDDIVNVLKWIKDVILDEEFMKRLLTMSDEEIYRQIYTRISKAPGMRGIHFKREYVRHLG

[6] = target: T2, 10E8-GT10.2 epitope scaffold; assay: SPR; values told in the text, methods or extended data without a main figure; instrument not told (Carterra LSA, ProteOn XPR36 with GLC chip or Biacore 4000 with CM5 chip); settings: both partners purified
T117v2 = target: T6, T117v2 (designed scaffold T117v2 with HIV-1 …); assay: SPR; ProteOn XPR36, GLC sensor chip; antibody as ligand, monomeric scaffold as analyte; monovalent KD; settings: both partners purified
T6 construct: also called T117v2 scaffold; source: FreeStyle 293F, purified (IMAC, SEC)
T6 chain: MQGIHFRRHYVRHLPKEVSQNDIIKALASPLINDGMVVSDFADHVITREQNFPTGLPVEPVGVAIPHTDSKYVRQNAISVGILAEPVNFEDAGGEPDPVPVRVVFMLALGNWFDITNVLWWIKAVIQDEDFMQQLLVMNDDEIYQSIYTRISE

10E8-GT4 = target: T7, 10E8-GT4 (synthetic construct (T117-based HIV-1 …)); assay: as above; settings: both partners purified
T7 construct: source: FreeStyle 293F, purified (IMAC, SEC)
T7 chain: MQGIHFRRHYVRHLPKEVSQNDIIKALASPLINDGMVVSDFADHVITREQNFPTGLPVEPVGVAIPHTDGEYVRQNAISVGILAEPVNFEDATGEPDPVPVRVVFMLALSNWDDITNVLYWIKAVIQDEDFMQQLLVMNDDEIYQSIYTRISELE

B1: MPER_HuGL-106 (MPER-102) (antibody, V domains shown)
VH: EVQLVESGGGLVQPGRSLRLSCTASGFTFGDYAMSWVRQAPGKGLEWVGFIRSKAYGGTTEYAASVKGRFTISRDDSKSIAYLQMNSLKTEDTAVYYCTRDKVGYDFWSGDYYYYGMDVWGQGTTVTVSS
VL: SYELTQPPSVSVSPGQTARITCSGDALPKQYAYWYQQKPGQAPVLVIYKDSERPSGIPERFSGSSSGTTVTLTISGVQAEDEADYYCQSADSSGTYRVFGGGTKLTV
Kd [1]: 1140 nM

B2: NHP-10E8_MPER-GT10v55_W26-06 (antibody, V domains shown)
VH: QVQLQESGPGLVKPSETLSLTCAVSGDSISSGYYYWSWIRQPPGKGLEWIGYITYSGSTSYNPSLKSQVTISRDTAKNQFSLKLSSVTAADTAVYYCARGGTYYNFWSDGSPQYNRFGFWGPGVPVTVSS
VL: DIVMTQTPLSLPVTPGEPASISCRSSQSLLHSEDGNTYLDWYLQKPGQSPQLLIYEVSNRASGVPDRFSGSGSDTDFTLKISRVEAEDVGVYYCMQGLEFPLTFGGGTKVELK
Kd [2]: 1.45 nM
Kd (10E8-B1 epitope scaffold [3]): 6420 nM

B3: NHP-10E8_MPER-GT10v55_W21-12 (antibody, V domains shown)
VH: EVQLVESGGGLVQPGGSLRLSCAASGFTFSSYGMHWVRQAPGKGLEWVAVIWYDGSKKYYADSVKDRFTISRDNSKNMLYLQMNNLKFEDTAVYYCARVAPDYDFWSGSYTYSGLDSWGQGVVVTVSS
VL: DIQMTQSPSSLSASVGDTVTITCRASQSISSWLDWYQQKPGKAPKLLIYKASNLQSGVPSRFSGSGSGTHFTLTISSLQPEDFATYYCLQYNSSPYSFGQGTKVEIK
Kd [2]: 0.842 nM
Kd (10E8-B1 epitope scaffold [3]): 1010 nM

B4: NHP-10E8_MPER-GT10v55_W21-19 (antibody, V domains shown)
VH: QVQLQESGPGLLKPSDTLSLICAVSGGSISGGYGWGWIRQPPGKGLEWIGSIYSSNGNTYYNPSLKSRVTISTDTSKNQFSLKLNSVTAADTAVYYCGSGGLSYSFWSGYQSLHRLHVWGPGVLVTVSS
VL: DIVMTQTPLSLPVTPGEPASISCRSSQSLLDSEDGNTYLDWYLQKPGQSPQLLIYEVSKRASGVPDRFSGSGSDTDFTLKISRVEAEDVGVYYCMQGLEFPFTFGPGTKLDIK
Kd [2]: 0.579 nM
Kd (10E8-B1 epitope scaffold [3]): 415 nM

B5: mature 10E8 broadly neutralizing antibody (antibody, V domains shown)
VH: EVQLVESGGGLVKPGGSLRLSCSASGFDFDNAWMTWVRQPPGKGLEWVGRITGPGEGWSVDYAAPVEGRFTISRLNSINFLYLEMNNLRMEDSGLYFCARTGKYYDFWSGYPPGEEYFQDWGRGTLVTVSS
VL: SYELTQETGVSVALGRTVTITCRGDSLRSHYASWYQKKPGQAPILLFYGKNNRPSGVPDRFSGSASGNRASLTISGAQAEDDAEYYCSSRDKSGSRLSVFGGGTKLTVL
notes: also called 10E8 bnAb; source: FreeStyle 293F cells or ExpiCHO (high-throughput), purified (protein A)
Kd (T117v2 epitope scaffold): 0.39 nM
Kd (10E8-B1 epitope scaffold [4]): 0.08 nM

B6: 10E8 unmutated common ancestor antibody (antibody, V domains shown)
VH: not shown
VL: SSELTQDPAVSVALGQTVRITCQGDSLRSYYASWYQQKPGQAPVLVIYGKNNRPSGIPDRFSGSSSGNTASLTITGAQAEDEADYYCNSRDSSGNHLVVFGGGTKLTVL
notes: also called 10E8 UCA; proposed 10E8 UCA; source: FreeStyle 293F cells or ExpiCHO (high-throughput), purified (protein A)
Kd [5]: ~600 nM

B7: NHP W3-01 Fab (Fab, V domains shown)
VH: QVQLQESGPGLVKPSETLSLTCAVSGGSFSSDWWGWIRQPPGKGLEWIGTIYGSGGSNYLNPSLKSRVTLSVDTSKNQFSLRLSSVTAADTAVYYCARGSGRYNIWTGYYTPFDAFDFWGRGLRVTVSS
VL: SYELTQPPSMSVSPGQTARITCGGDNLGSKYVHWYQQKPAQAPVLVIYYDSDRPSGIPERFSGSKSGNTATLTISGVEAGDEADYYCQVWDSSSDHYIFGAGTRLTVL
notes: also called 10E8-GT10.2-induced macaque antibody with a YxIW motif from week 3
Kd [6]: 4.8 nM

B8: 10E8 (antibody, V domains shown)
VH: EVQLVESGGGLVKPGGSLRLSCSASGFDFDNAWMTWVRQPPGKGLEWVGRITGPGEGWSVDYAAPVEGRFTISRLNSINFLYLEMNNLRMEDSGLYFCARTGKYYDFWSGYPPGEEYFQDWGRGTLVTVSS
VL: SYELTQETGVSVALGRTVTITCRGDSLRSHYASWYQKKPGQAPILLFYGKNNRPSGVPDRFSGSASGNRASLTISGAQAEDDAEYYCSSRDKSGSRLSVFGGGTKLTVL
notes: also called mature 10E8; 10E8 bnAb; source: FreeStyle 293F or ExpiCHO, purified (protein A)
Kd (T117v2): 0.94 nM
Kd (10E8-GT4): 9.5 nM

B9: 10E8-iGL1 (antibody, V domains shown)
VH: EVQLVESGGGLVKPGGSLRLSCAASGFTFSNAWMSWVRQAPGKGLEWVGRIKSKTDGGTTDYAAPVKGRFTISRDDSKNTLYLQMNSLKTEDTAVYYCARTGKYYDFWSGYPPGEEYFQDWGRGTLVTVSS
VL: SSELTQDPAVSVALGQTVRITCQGDSLRSYYASWYQQKPGQAPVLVIYGKNNRPSGIPDRFSGSSSGNTASLTITGAQAEDEADYYCSSRDKSGSRLSVFGGGTKLTVL
notes: source: FreeStyle 293F or ExpiCHO, purified (protein A)
Kd (10E8-GT4): 250 nM
koff (10E8-GT4): 25 s⁻¹
kon (10E8-GT4): 1e+08 M⁻¹ s⁻¹

B10: 10E8-iGL2 (antibody, V domains shown)
VH: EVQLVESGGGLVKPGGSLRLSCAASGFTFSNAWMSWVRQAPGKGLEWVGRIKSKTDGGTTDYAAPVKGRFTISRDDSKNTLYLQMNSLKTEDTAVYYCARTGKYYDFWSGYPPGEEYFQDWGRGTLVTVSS
VL: SSELTQDPAVSVALGQTVRITCQGDSLRSYYASWYQQKPGQAPVLVIYGKNNRPSGIPDRFSGSSSGNTASLTITGAQAEDEADYYCNSRDSSGNHLWVFGGGTKLTVL
notes: as for B9
Kd (T117v2): 17000 nM
koff (T117v2): 0.11 s⁻¹
kon (T117v2): 6600 M⁻¹ s⁻¹

Source: paper PMC11147780, “Vaccination induces broadly neutralizing antibody precursors to HIV gp41” (Nature Immunology, 2024)
